Consider 42 variants from the RNAGym collection of RNA variant scans (doi:10.1073/pnas.2313332121).

Sequences and labels used below:
B1: TPR t1 (parent)
chain: GACCAAUCUGCCCUCAGAGCUCGAGAACAUCUUCGGAUGCAGAGGAGGCAGGCUUCGGUGGCGCGAUAGCGCCAACGUCCUCAACCUCCAAUGCAUCCCACCACAUGAUGAUGCCUGAAGAGCCUUGGUUUUUUG

This data set covers variants of B1. In words: polymerase ribozyme fitness, log enrichment relative to wild type (log ratio); higher = more active; in vitro selection for triplet polymerase activity. In a few lines: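 Streptavidin-bead capture of gel-excised extended constructs, followed by RT-PCR, closed a single triplicate in vitro selection round. That round began by annealing PCR-built, transcribed mutant libraries of each subunit of a heterodimeric triplet polymerase ribozyme with a biotinylated primer, the partner subunit and triplets, then incubating them frozen at −7 °C. After Illumina sequencing of inputs and outputs, genotypes needed ≥10 input reads and ≥1 read per output. Fitness is the base-2 logarithm of genotype enrichment over wild-type enrichment, using inverse-variance-weighted replicate averages.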
For GACCAAUCUGCCCUCAGAGCUCGAGAACAUCUUCGGAUGCAGAGGAGGCAGGCUUCGGCGGCGCGAUAGCGCCAACGUCCUCAACCUUCAAUGCAUCCCACCACAUGAUGAUGCCUGAAGAGCCUUGGUUUUUUG, the “polymerase ribozyme fitness (log ratio)” value is -0.959.
For GACCAAUCUGCCCUCAGAGCUCGAGAACAUCUUCGGAUGCAGAGGAGGCAGGCUUCGGAGGCGCGAUAGCGCCAACGUCCUCUACCUCCAAUACAUCCCACCACAUGAUGAUGCCUGAAGAGCCUUGGUUUUUUG the value was -0.452; for GACCAAUCUGCCUUCAGAGCCCGAGAUCAUCUUCGGUUGCAGAGGAGGCGGGCUUAGGUGGCGCGAUAUCGCCAACGUCCUCAACCUCCAAUGCAUCCCACCACAUGAUGCUGCCUGAAGAGCCUUGGUUUUUUG, -4.81; for GACCAAUCUGCCCUCAGAGCUCGAGAACAUCUUCGGAUGGCGAGGAGGCAGGCUUCGGUGGCGCGAUAGCGCCAACGUCCUCAACCUCCAAUGCAUCCCACCACAUGAUGAUGCCUGAAGAGCCUUGGUUUUUUG, -3.16.
For GACCAAUCUGCUCUCAGAGCUCGAGAACAUCUUCGGAUGCAGAGGAGGCAGGCUUCGGUGGCGCGAUAGCGCCAACGUCCUCAACCUCCAAUGCAUCCCACCACAUGAUGAUGCCUGAAGUGCCUUGGUUUUUUG the value was 2.4; for GACCAAUCUGCCCUCAAAGCUCGAGAACAUCUUCGCAUGCAGAGGAGGCAGGCUUCGGUGGCGCGAUAGCGCCAACGUCCUCAACCUCCAAUGCAUCCCACCACAUGAUGAUGCCUGAAGAGCCUUGGUUUUUUG, -3.9.
Regarding GACCAAUCUGCCCUCAGUGCUCGAGAACAUCUUCGGAUGCUGAGGAGGCAGGCUUCGGUGGCGCGAUAGCGCCAACGUCCUCAACCUCCAAUGCAUCCCACCACAUGAUGAUGCCUGAAGAGCCUUGGUUUUUUG, the “polymerase ribozyme fitness (log ratio)” value is -2.88.
To GACCAAUGUGCCCUCAGAGCUCGAGAACAUCUUCGGAUGCAGAGGAGGCAGGCUUCGGUGGCGCGAUAACGCCAACGUCCUCAACCUACAAUGCAUCCCACCACAUGAUGAUGCCUGAAGAGCCUUGGUUUUUUG belongs -2.65.
For GACCAAUCUGCCCUCAGAGCUCGAGAAUAUCUUCGGAUGCAGAGGAGGCAGGCUUCGCUGCCGCGAUAGCGCCAACGUCCUCAACCUCCAAUGCAUCCCACCACAUGAUGAUGCCUGAAGAGCCUUGGUUUUUUG the value was -2.78.
For the variant GACCAAUCUGCCCUCAGAGCUCGAGAACAUCUUCGGAUGCAGAGGAGGGAGUCUUGGGUGGCGCGAUAGCGGCAACGUCCUCAACCUCCAAUGCAUCCCACCACAUGAUGAUGCCUGAAGAGCCUUGGUUUUUUG, the “polymerase ribozyme fitness (log ratio)” value was -7.2.
To GACCAAUCUGCCCUCAGAGCUCGAGAACAUCUUCGGAUGCAGAGGAGGCAGGCUUCGGUGCCGCGAUAGCGCUAACGUCCUCAACCUCCAAUGCAUCCCACCACAUGAUGAUGCCUGAAGAGCCUUGGUUUUUUG belongs -2.31; to GACGAAUCUGCCCUCAGAGCUCGAGAACAUCUUCGGAUGCAGAGGAGGCAGGCUUCGGUGGCGCGAUAGCUCCAACGUCCUCAACCUCCAAUGCAUCCCACCACAUGAUGAUGCUUGAAGAGCCUUGGUUUUUUG, -3.28; to GACCUAUCUGCCCUCAGAGCUCGAGAACAUCUUCGGAUGCAGAGGAGGCAGGCUUCGGUUGCGCGAUAGCGCCAACGUCCUCAACCUCCAAUGCAUCCCACCACAUGAUGAUGCCCGAAGAGCCUUGGUUUUUUG, -1.69.
To GACCAAUCUGCCCUCUGAGCUCGAGAAUAUCUUCGGAUGCAGAGGAGGCAGGCUUCGGUGGCGCGAUAGCGCCAACGUCCUCAACCUCCAAUGCAUCCCACCACAUGAUGAUGCCUGAAUAGCCUUGGUUUUUUG belongs -3.52.
As to GACCAAUCUGCCCUCAGAGCUCGAGAACAUCUUCGGAUGCAGAGGAGGCAGUCUUCGGUGGCGCGAUAGCGCCAACGUCCCCAACCUCCAAUGCAUCCCACCACAUGAUGAUGCCUGAAGAGCCUUGGUUUUUUG, the “polymerase ribozyme fitness (log ratio)” value is -1.74.
For GACCAAUCUGCCCUCAGAGCUCGAGAACAUCUUCGGGUGCAGAGGAGGCAGGCUUCGGCGGCGCGAUAGCGCCAACGUCCUCAACCUCCAAUGCAUCCCACCUCAUGAUCAUGCCUGAAGAACCUUGGUUUUUUG the value was -6.29.
Take GACCAAUCUGCCCUCAGAGCUCAAGAACAUCUUCGCAUGCAGAGGAGGCAGGCUUCGGUGGCGCGAUAGCGCCAACGUCCUCAACCUCCAAUGCAUCCCACCACAUGAUGAUGCCUGAAGAGCCUUGGUUUUUUG: the “polymerase ribozyme fitness (log ratio)” value was -6.17.
For GACCAAUCUGCCCUCAGAGCUCGAGAACAUCUUCGGAUGCAGAGGAGGCAGGCUUCGGUGGCGCGAUAACGCCAACGUCCUCAACCUCCAAUGCAUCCUACCACAUGAUGAUGCCUGAAGAGCCUUGGUUUUUUG the value was -5.78; for GACCAUUCUGCCCUCAGAGCUCGAGAACAUCUUCGUAUGCAGAGGAGGCAGGCUUCGGUGGCGCGAUAGCACCAACGUCCUCAACCUCCAAUGCAUCCCACCACAUGAUGAUGCCUGAAGAUCAUUGGUUUUUUG, -1.43; for GACCUAUCUGCCCUCAGAGCUCGAGAACAUCUUCGGAUGCAGAGGAGGCAGGAUUCGGUGGCGCGAUAGCGCCAACGUCCUCAACCUCCAAUGCAUCCCACCAUAUGAUGAUCCCUGAAGAGCCUUGGUUUUUUG, -1.6.
For GACCAAUGUGCCCUCAGAGCUCGAGAACAUCUUCGGAUGCAGAGGAGGCAGGCUUCGGUGGCUCGAUAGCGCCAUCGUCCUCGAACUCCAAUGCAUCCCACCACAUGAUGAUGCCUGAAGAACCUUGGUUUUUUG the value was -0.256.
For GAGCAAUCUGCCCUCAGAGCUCGAGAACAUCUUCGGAUGCAGAGGAGGCAGGCUUCGGUGGCUCGAUAGCGCCAACGUCCUCAACCUCCAAUGCAUCCCACCACAUGAUGAUGCCUGAAGAGCCUUGGUUUUUUG, the “polymerase ribozyme fitness (log ratio)” value is -2.85.
To GACCAAUCUGCCCUCAGAGCUCGAGAACAUCUUCGGAUGCAGAGGAGGCAGACUUCGGUGGUGCGAUAGCGCCAACGUGCUCAACCUCCAAUGCAUCCCACCACAUGAUGAUGCCUGAAGAGCCUUGGUUUUUUG belongs -0.394; to GACCAAUCUGCCCUCAGAGCUCGAGAACAUCUUCGGAUGCAGAGGAGGCAGGCUUCGGUGGCGCGAUAUCGCCAACGUCCUCAACCUCCAAUGCAUCCCACCACAUGAUGAUGCCCGAAGAGCCUUGGUUUUUUG, 0.102.
For GACCAAUCUGCCCUCAGAGCUCGAGAACAUCUUCGGAUGCAGAGGUGGCAGGCUUCGGUGGCGCGAUAGCGCCAACGUUCUCAACCUCCAAUGCAUCCCACCACAUGAUGAUGCCUGAAGAGCCUUGGUUUUUUG the value was -2.22.
To GACCAAUCUGCCCUCAGAGCUCGAGAACAUCUUCGGAUGCAGAGGAGGCAGGCUUCUGUGGCGCGAUAGCGCCAACGUCCUCAACCUCCAAUGCAUCCCACCACAUGAUGAAGCCUGAAGAGCCUUGGUUUUUUG belongs 1.54; to GACCAGUCUGCCCUCAGAGCUCGAGAACAUCUUCGGUUGCAGAGGAGGCAGGCUUGGGUGGCGCGAUAGCGCCAACGUCCUCAACCUCCAAUGCAUCCCACCACAUGAUGAUGCCUGAAGAGCCUUGGUUUUUUG, -1.11.
GACCAAUCUGCCCUCAGAGCUCGAGAACAUCUUCGGAUGCAGAGGAGGCAGUCUUCGGUGGCGCGAUAGCGCUAACGUCCUCAACCUCCAAUGCAUCCCACCAGAUGAUGAUGCAUGAAGAGCCUUGGUUUUUUG: the “polymerase ribozyme fitness (log ratio)” value was -6.56.
For the variant GACCAAUCUGCCCUCAGAGCUCGAGAACAUCUUCGGAUGCAGAGGAGGCAGACUUCGGUGGCGCGAUAGCGCCAACGUCCUCAACCUCCAAUGCAUCCCACCAUAUGAUGAUCCCUGAAGAGCCUUGGUUUUUUG, the “polymerase ribozyme fitness (log ratio)” value is -2.55.
To GACCAAUCUGCCCUCAGAGCUCGAGAACUUCUUCGGAUGCAGAGUAGGCAGGCUUCGGUGGCGCGAUAGCGCUAACGUCCUCAACCUCCAAUGCGUCCCACCACAUGAUGAUGCCUGAAGAGCCUUGGUUAUUUG belongs -4.04; to GACCAAUCUGCCCUCAGAGCUCGAGAACAUCUUCGGAUGCAGAGGAGGCAGACUUCGGUGGCGCGAUAGCGCCAACGUCCUCAACCUGCAAUGCAUCCCACCACAUGAUGAUGCCUGAAGAGCCUUGGUUUUUUG, -0.655.
To GACCAAUCUGCCCUCAGAGCUCGAGAACAUCUUCGGAUGCAGAGGAGGCACGCUUCGGUGGCGCGAUAGCGCCAACGUCCUCAACCUCCAAUGCAUCCCACCACAUGAUGAUGCCUGAAGAGCCUUGGUUUUUUU belongs -4.93.
Turning to GGCCAAUCUGCCCUCAGAGCUCGAGAACAUCUUCGGAUGCAGAGGAGGCAGGCUUCGGUGGCGCGAUAGCGCCAACGUCCUCAACGUCCAAUGCAUCCCACCACAUGAUGAUGCCUGAAGAGCCUCGGUUUUUUG, the “polymerase ribozyme fitness (log ratio)” value was -2.8.
To GACCAAUCUGCCCUCAGAGCUCGAGAACAUCUUUGGAUGCAGAGGAGGCAGGCUUCGGUGGCGCGAUAGCGCCAACGUCCUCAACCUCCAAUGCAUCCCACCACAUGAUGAUGCCUGAAGAGCCUUGGUUUUUUG belongs -4.05; to GACCAAUCUGCCCUCAGAGCUCGAGAACAUCUUCGGAUGCAGAGGAGGCAGGCUUCGGUGGCGCGAUAGCGCCAACGUCCUCAACCUCCAAUGCAUCCCACCACAAGAUGAUGCCUGAAGAGCCGUGGUUUUUUG, -0.507; to GACCAAUCUGCCCUCAGAGCUCGAGAACAUCUUCGGAUGCAGAGGAGGCAGGCUUCGGUGGCGCGAUAGCGCCAACGUCCUCAAACUCCAAUGCAUCCCACCACAAGAUGAUGCCUGAAGAGCCUUGGUUUUUUG, -2.53.
To GACCAAUCUGCACUCAGAGCUCGAGAACAUCUUCGGAUGCAGAGGAGGCAGGCUUCGGUGGCGCGAUAGCGCCAACGUCCUCAACCUUCAAUGCAUCCCACCACAUGAUGAUGCCUGAAGAGCCUUGGUUUUUUG belongs -0.873; to GACCAAUCUGCCCUCAGAGCUCGAGAACAUCUUCGGAUGCACAGGAGGCAGGCUUCGGUGGCGCGAUAGCGCCAACGUCCUCAACCUCCAAUGCAGCCCACCACAUGAUGAUGCCUGAAGAGCUUUGGUUUUUUG, -0.43; to GACCAAUCUGCCCUCAGAGCUCGAGAACAUCUUCGGAUGCAGAGGAGGCAGGCUUCGGUGGAGCGAUAGCGCCAGCGUCCUCAACCUCCAAUGCAUCCCACCACAUGAUGAUGCCUGAAGAGCCUUGGUUUUUUG, -1.22.
As for GACCAAUCUGCCUUCAGAGCUCGAGAACAUCUUCGGAUGCAGAGGAGGCAGGCUUCGGUGUCGCGAUAGCGCCAACGUCCUCAACCUCCAAUGCAUCCCACCACAUGAUGAUGCCUGAAGAGCCUUGGUUUUUUG, the “polymerase ribozyme fitness (log ratio)” value is 0.429.
For GACCAAUCUGCCCUCAGACCUCGAGAACAUCUUCGGGUGCAGAGGAGGCAGGCUUCGGUGGCGCGAUAUCGCCAACGUCCUCAACCUCCAAUGCAUCCCACCACAUGAUGAUGCCUGAAGAGCGUUGGUUUUUUG, the “polymerase ribozyme fitness (log ratio)” value turned out to be 0.721.
Turning to GACCAAUCUGCCCUCAGAGCUCGAGAACUUCUUCGGAUGCAGAGGAGGCAGACUUCGGUGGCGCGAUAGCGCCAACGUCCUCAACCUCCAAUGCAUCCCACCACAUGAUGAUGCCUGAAGAGCCUUGGUUUUUUG, the “polymerase ribozyme fitness (log ratio)” value was -1.8.
